From PMC3608632

Assays:
[1] = target: hyperphosphorylated R-topo I (CK2-treated baculovirus-expressed recombinant human topo I) (human) (UniProt P11387)
[2] = target: hyperphosphorylated R-topo I (CK2-treated baculovirus-expressed recombinant human topo I) (human) (UniProt P11387); conditions: scale: % of supercoiled DNA converted to the relaxed form
[3] = target: basal phosphorylated baculovirus-expressed recombinant human topo I (R-topo I) (human) (UniProt P11387); conditions: scale: % of supercoiled plasmid converted to the relaxed form
p14ARF (ARF) = p14ARF (ARF) (UniProt Q8N726); test: anti-FLAG IP, ARF Western; conditions: reference: wild-type full-length topo I (construct 6); sites S506

Row | Substance | non-covalent association of R-topo I with radiolabeled plasmid DNA (DNA co-immunoprecipitated with topo I; 75 mM NaCl, 4°C), ARF added at a 1:1 molar ratio; ~60% without ARF (% of input DNA) [1] | relaxation of supercoiled plasmid DNA by R-topo I with ARF added (∼70% without ARF) [2] | relaxation of supercoiled plasmid DNA by R-topo I with ARF added (about 40% without ARF) [3] | binding against the reference (p14ARF (ARF))
1 | recombinant thioredoxin-human ARF fusion protein (from UniProt Q8N726 1-132) (natural protein) | 80 | 100 | 50 | –
2 | topoisomerase I (topo I) (from UniProt P11387) S506A full-length topo I (construct 9) | – | – | – | weaker
